{"source": "paper PMC3799859", "molecular_target": "FLAG-tagged Sig-1R, Q99720", "sequence (Q99720 whole entry, the tested form may be a part)": "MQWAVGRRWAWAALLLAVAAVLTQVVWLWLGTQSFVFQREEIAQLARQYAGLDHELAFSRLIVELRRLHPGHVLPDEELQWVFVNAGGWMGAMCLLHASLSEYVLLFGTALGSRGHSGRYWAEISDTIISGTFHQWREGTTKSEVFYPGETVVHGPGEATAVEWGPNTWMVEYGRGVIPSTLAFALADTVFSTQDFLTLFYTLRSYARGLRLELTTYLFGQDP", "assay": "co-immunoprecipitation (IP: V5, Western blot for FLAG, quantified)", "details": "chain shown with the change; n = 4; parent: est. 100; read off a plot", "data": [{"binder": "ΔIRE1-V5/His (ER lumenal domain of human IRE1), O75460 D123P (protein) IFGSTSTVTLPETLLFVSTLDGSLHAVSKRTGSIKWTLKEDPVLQVPTHVEEPAFLPDPNDGSLYTLGSKNNEGLTKLPFTIPELVQASPCRSSDGILYMGKKQPIWYVIDLLTGEKQQTLSSAFADSLCPSTSLLYLGRTEYTITMYDTKTRELRWNATYFDYAASLPEDDVDYKMSHFVSNGDGLVVTVDSESGDVLWIQNYASPVVAFYVWQREGLRKVMHINVAVETLRYLTFMSGEVGRITKWKYPFPKETEAKSKLTPTLYVGKYSTSLYASPSMVHEGVAVVPRGSTLPLLEGPQTDGVTIGDKGECVITPSTDVKFDPGLKSKNKLNYLRNYWLLIGHHETPLSASTKMLERFPNNLPKHRENVIPADSEKKSFEEVINLVDQTSENAPTTVSRDVEEKPAHAPARPEAPVDSMLKD", "values": [{"measurement": "percent of parent", "value": 190, "unit": "%"}]}]}
